System: Saccharomyces cerevisiae
Assay: transcriptional activation domain activity (GFP:mCherry ratio, weighted mean of sorted bins, harmonized to initial dataset scale) (arbitrary fluorescence ratio units); higher = stronger transcriptional activation
Details: beta-estradiol 1 µM; induction time 4 h
Method in brief: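 Sorting into 8 bins by GFP:mCherry ratio followed a 4-hour hold at 30 °C after cultures were diluted 1:5 into SC with 1 uM beta-estradiol. The yeast diploids carried a GFP reporter and had barcoded protein tiles, fused to an estradiol-inducible synthetic transcription factor, integrated at URA3. Barcodes were then sequenced, and tiles with under 50 reads were removed. Activation activity is the read-weighted mean of bin median fluorescence, averaged across barcodes and linearly mapped onto the initial dataset scale.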

| Sequence | transcriptional activation domain activity |
| --- | --- |
| MAEADQSSHHQPEPRRTHRKSRNGCVTCKQRRVKCDEGRPTCQKCSFGNRPCS | 41900 |
| MFIVCLFLFMILHYSFMFYIFGSNYLLLLLLVLLSWWFFLLYFPTFIFLFGVL | 48700 |
| MGKGGYGEQRGGGRGGFRGGRGGGRGGFGGGGFNQGPPSEVVVVGAFVSACEG | 56800 |
| PKRASQGRNFNTLFDKYFTGKDWEIHIMRTLRPDIFILLCVLFVPTEFKEIHD | 37700 |
| MRIFVFFSLLFLFFFCYMYYICLLLFCTLQTYIFILYHIIPYSILIYIYYISN | 59200 |
| RGRRKWNWTVVLYFACRVTTLAAAVTQMTGFNFTSEISCKTWLILTRIFTNTS | 48200 |
| SMGENLFDVFRARVILTWYYWTHARWCDVYMSSVISLRLAVTCGLNGCPPFQT | 75000 |
| MLFHFLAFPFLFFIFFLCCFSSWVAFHSPFSFLIMFSFEWIMLFFIRCTASSV | 41600 |
| QHNASQPGDLHSVLHRNQREGQHSVNQLVDRHSESQRGGQHNVNQQRDLQHGN | 33400 |
| VGLFGMGQKRISALIGVLFAFTLGCVLILRWRLPWYRNLIQTLLYHLFVIYLH | 52600 |
| MIQTPLFYYLFYILFYFIFIFIYSLLGFFLIFYLFVLFSFHFCFPPPPPFSFF | 46900 |
| MPGHALVDIQNTFGCTFIGLVISILYLILNFGNVENLEYNMWAMNLQVDITGL | 56500 |
| VFLNGILFLGSILFYQVVLLRLNWYLLHILAYTIAFAYNAFWLYPVYCLSFLL | 33000 |
| AAAAAAAAAAAAAAAAAAAAAAAAAAAQQRRRQQQQQRRGSSAAARRQQQQQR | 22600 |
| GKGKRKAVSEEEDKDEEGDEEPVKAKGKGKGKGKRKVVAKKVKRRAPAAADTS | < 6570 |
| LLKLKMATKTNDIALYEHFIDMSLRFLPFWNMIVSYYLCLLLLFNTTHIIFIL | 90500 |
| TACVAIINIKCLFLEMHVWSVLNYAFFFISYGGWWVWTIAQSLIFGHQSIYFV | 34700 |
| TNSEEDALDAWDLCATKMSLALVQLVQMFEEKELLSSLNVLLRLVTRISTAIP | 45700 |
| CHLTVIYFMSVPVIYLRLARLLFLEILTAGRIAIEGNGLGQGSLLAKTLRGRQ | 66500 |
| VRTALLKSSHDADIDATVHDQAVREFCSSLNAVTRGVNVLVMTVALLVEIYAA | 84400 |
| VLAGYVVHVFGGDYFHSFSMTFFTFIWTLLFMGYIFITRDYIPKCYFYWLHIA | 54600 |

| Sequence | transcriptional activation domain activity |
| --- | --- |
| LLIFVLFYYNCMKILYGIFGFIILGVLGLFGYYISSMLLWLYNVPFDYISFFF | 68500 |
| ALKVVVRVKMFGIGPLIYCSCLFVLLFSVVLLLLLAALYLMLQIYAALVVSAV | 47100 |
| ADEEDADEEDADEEDAGEKDAGEKDAGEEGAGEEDAGEEDASAIDAAACRMVQ | 29800 |
| VERCHRNIVTNGCAVFQAGGLVVVLVEVNRKSYLASIVPVIVNAILNEHQIIV | 40900 |
| FGVKKVHHEIRSHVRLYYQSIGTSLLKGYERMDMVDIFKALRQCFLAIVLLFR | 53600 |
| MIPLLSFYYYFYISTCKTELLFSPFIFYFLLFLYIYIKIYTYFLHTPFLLVFE | 47700 |
| YCDAKPGHSLVFAGHAGELELYLDKSCDADSIMTRENLGSLNRFVRLLLLLAK | 38300 |
| MGCDVVGCDVVGFLFFLFFFILFLGLLVCWLAGWHVCWVFWFLVFVLGGLGGL | 48200 |
| KKSSTSSTAAPKKRTPAKKSTPAPTPSPSASPEPVKPKKTSSKKAAKPVAVAE | 25400 |
| MGMEYIFCLSLSSWGYIFFSFHGFPLFLIFIFSFLARFFLLFFHLFFSFSFFA | 65400 |
| AEEPAPEAPAPEEPAVEEAVPAEEAAPEAPAPVEEATPEKPVAAEEAAPEAPA | 32600 |
| RAVDNSKWWLLGDSFETDVLTFVSLFQFVNAALIFNYGYLFRDRWYRNYLLLV | 47900 |
| QAAFRQRRANYIATLEETGWVVSILLYLHRSSLSFSAVTSLESVVLQLQDSCR | 53400 |
| RVLNLTIHCAIWVRLYASLAWQKFADTLVHLELQFFTSSVLRAIPQNVCCRHL | 38100 |
| SEPELYVPQFKLDPVNGFWFPHFVKYIILILMLGLYVLIIFWTFMICKVVYRL | 33300 |
| GYLHHILKLFDCAFGISYPQLHHVLEVRTRALLLAGLNLTFVLDGPLPMWKAA | 54900 |
| FQFPIDFTNDFSDGFSLDADIGQFMDPLLLTSFLPSPIPFDDGTELSSLELLH | 167000 |
| KKKKRKKKTPSKGESEEKGDDEDDEDEKKQTPKANTGAKKTKATGKTDREKKE | 51500 |
| HFVELSTILGIIILHSPAICLQVVLLLFCGLHSVVVALMLDRVPPLIYLAFFV | 66100 |
| AFAGVLLCYFFILFYFIFFFLFFSWLLLLVEYIVWDNLINLLFLVSCFSFFFA | 55300 |
| ILVYLSSVKLRNYRGNTYSFIHLTPWVPLDLLKYACDFLGLLSGFNLLPLYFQ | 56300 |

| Sequence | transcriptional activation domain activity |
| --- | --- |
| LLHAAGVHYGYGLLLLKCDILLRLLMFISFLLSSQFLLSVISPLLFFPSFVLM | 54700 |
| HWRAFVTGGGSAFWLLAYGIFYWASRLSLDSFTSVILYLGYLVLLALMDFLVT | 20300 |
| DRSRATEEEDGKSTKRSRARSRTFTFSKSDKGGDGSPSKKVRSTSKSRAKHDG | 31100 |
| DLDILLAKLLEELEDSLQALKRLVVSAFLRFLTGVLYEEFMEAIRPNPHMDNE | 58200 |
| AAEEAAVADGECPSKKKRQAELSKQISAKWKGLSPEDRRYWDTLAKEKKREHE | 19500 |
| QTAVDNMNEQDLDGRNVRVNMANERPASSGGYGGGRGGGRGGFGGGRGRGGYG | 29600 |
| MYELIGQGVSFFCCYFACVCFALHFCFGPYFGLWLWHCIFKTFFFLLVFFPNY | 61200 |
| KGAKDEKKEDAKGGEEGKDATKQREKEESKGGKLESTPSKEFSDGKEQQEKKG | 40400 |
| MALLSQVARLLGSFLCVAISCFGRLALLFLWLILAYFTFWSFFSGNLPICFCL | 59300 |
| LIAGWCCLLSASCGIFYCIFRAIAIYVPEFNCRVVLWCFAILKVISILCHAAV | 32700 |
| YHFCYHLRLYLYAFQPPLFLRLCHFFSYDGWYLGFTWGFFLFFRFHFPIPSFL | 45900 |
| ALGLPARPVSHHILIAIPSGLPLRTHELFMQLLFEHLHLSAVMLVDRSIAQTY | 55300 |
| VGLVGMSLSILGKDHLVWNALAACRTEISEVFERMLRALYHWMIDVAHQYCGK | 56300 |
| TMDKQIKYFWSSPCKFISLIYFANRYIGILEAISEIARLGFIWLQNLADILLM | 43800 |
| PGYVVQYKNSLIGKHFKMLQQLGVFYLHDLCAPLILDLWKATGELGAYLWFPE | 40900 |
| MHPCTLLSFRVFAYFYLLLIPPPPLLYSYLSYTNIYSYIIVLLLLLLFYVTIV | 54800 |
| SNEGFDYDVELKKKNIGLILAFKEHECDSDQLVAYLVYQRMKRIVWLHKLCVV | 64600 |
| KFNNRLSSDSTSPIKYEADVSAGGKISEDNSTKGSSKESSAIADELDWLKFGI | 40600 |
| YVDEENQSSNGAVRLWKRHFTLSGIMNRLLRKTVRRNTWIYISVSTLIVQIRR | 45700 |
| GGNIHIRSLFIIAMVFLFFGLVLLTIGFFSDFRKSWFVWRLRTCWLWANGTRF | 57800 |
| LFLFIFLVAESYLGFSCWVLYSNVPLYAHVADLAGTKKPFVLPVPFMNVINGG | 48000 |

| Sequence | transcriptional activation domain activity |
| --- | --- |
| LFSCCCLLRTLGRFLLFIIFFPSLSTCSFFYFLVLFLFSFQTYFLLYLYLLSI | 43800 |
| MLSIYNLQTRGIHPPNVVVGMAIFCGGLAHIFLLLFRSWNVGIICSMSCHILL | 66200 |
| MCLYRYYGFRIFLCLVVVLGDLFLGYLKLYVYIYNTVLVYWGEISISLLLVYI | 71900 |
| DFFLGERDLLQETVSEEWLQFFDDGDLDQILDFLIFFKNPESLHPPSSLVDFI | 158000 |
| VFTSLHTCRFAAPHLWWLIFSILCLQYLIILEVFVIAMLVFIIGPLIYLFWNI | 42600 |
| NDTKKNMSTSNLFPFSFSNTDLTALFTHPEGPNCTNTNNGNVDVCNRASTDAT | 51400 |
| KVNTNNDVNENNDLWNSYLQSMDDTTGKNSGNYQQVDNDDNMSLLNLPILEET | 90400 |
| PGEVSEAEANGDAPKAEAAVAPDSDEAAKPKKKKKARKPKAAKKGEDGEPAAA | 17100 |
| MLCADLFFRFVLVKILVFILYDYGRGECDIVIMLVFFFFFPPPPPFFSFFFLF | 65300 |
| VLLHLNRYMSIFGNLQILILVGLTSCCRTSHIYHMVLLLVQQHTLHRRYVLHA | 69400 |
| SVVLGVLHMSLSICTQVPNFIHFGRPSSIITEFLPQILFLHCLFGYLVFMIIY | 79100 |
| IQSGDEGKDRKGREKVEDRSKRSRRRSRSRSKDRSRGKRRRDDHEGTKGGGQA | 41100 |
| RTPTYDRRTIIQGLQQAEMNLDNSFKRVSEMILMLMIRMHDWSTLRRRFQMDQ | 45200 |
| YVLVLTYLNYFVLILFGHMRDILGKVFKAQAYVHLKTVNGYAPLVSDFDSFYN | 63900 |
| IFTELYFIMSSIWFSKVYYMFGFLFVCFLLMTLTCAAVTILLVYFLLCAENYH | 62000 |
| KPESKEKEEEEEETETETETETKPEAKEEPKEEPKEEVNNEKEAEDAAAAEAK | 27200 |
| AVIRKIRLLVCLAREQALRGYALEMVIHGLKPFIVDSYCSQDTIGVVQYLLHR | 46700 |
| FTQFEDTWNLDVTPNFLPDLNDFDMERLDFSLADDFAQSIASFPYSPPETLLI | 149000 |
| ALLAISLTSFLCSSVFLEIETWCKKYRSHLLLVLMIPMVEPLISLFISFMWLL | 62500 |
| VLGNLLCAILFRNELWMRFLYLVFIYGLRGVSWAPLSIKYAATSILQHVGGIH | 29200 |

Reference: the supplement of paper PMC12636428
